The source of these data is PMC12462478 (Nature Communications, 2025).

The assay concerns the target human LGR4 (residues 25–833), called full-length LGR4 (human, UniProt Q9BXB1 25-833). Description: cryo-EM structure.

B1: RSPO2(FU), FU domain of RSPO2 (residues 37–143) (domain or fragment)
chain: NPICKGCLSCSKDNGCSRCQQKLFFFLRREGMRQYGECLHSCPSGYYGHRAPDMNRCARCRIENCDSCFSKDFCTKCKVGFYLHRGRCFDECPDGFAPLEETMECVE
As usually defined, the stoichiometry N is a count of units in the complex or per binding partner. Turning to B1, the “stoichiometry N” value turned out to be 1.
